Results published in paper PMC3977038.

Key:
[1] = target: aεFab^1–IgE-Fc complex (one aεFab bound to IgE-Fc) (UniProt P01854); assay: SPR
[2] = target: Fcε3-4 sub-fragment of IgE-Fc (human); assay: ITC

Kd [1]: 1400 nM
Kd2 (second site, sequential two-site fit) [2]: 0.98 µM
B1: anti-ε-chain Fab (aεFab), anti-human IgE-Fc antibody in human IgG1 Fab format (Fab, V domains shown)
VH: QVQLQQSGPGLVKPSQTLSLTCGISGDSVSSNSAAWNWLRQSPSRGLEWLGRTYYRSKWYNDYAVSMKSRITINPDTSRNQFSLQLNSVTPEDTAVYYCARDGEISYDYYYYGMDVWGRGTLVTVSS
VL: QSVLTQPPSASGTPGQRVTISCSGSSSNIGNNGVNWYQQVPGKPPKLLIYYDDLLPSGVSDRFSGSKSGTSASLAISGLQSEDEADYYCEAWDDSLDGVVFGGGTKLTVL
